How the values were obtained:
[1] = system: HUVEC monolayer; assay: In vitro vascular permeability (leakage) assay, TNF-α induced, FITC-dextran; format: cell-based, human; settings: HUVECs; pre-treatment antibody 1 μg/ml with Ang2 1 μg/ml 30 min; TNF-α 100 ng/ml 22 hr
Method: Vascular leakage assay was carried out in HUVECs using In Vitro Vascular Permeability Assay Kit (Millipore®) according to the manufacturer's instruction. HUVECs were seeded into the insert of the transwell plate and cultured for 3 days for 100% confluence. The HUVECs were pre-incubated with Ang2 (1 μg/ml), Ang2 (1 μg/ml) together with Control, 2C8H11 or 4B9H11 antibody (1 μg/ml) for 30 min, and then TNF-α (100 ng/ml) was added, and the cells were incubated at 37° C. for 22 hr. FITC-dextran was added to the upper chamber and incubated for 20 min. Passage of FITC-dextran though the HUVEC monolayer was measured by a fluorescence reader at excitation and emission wavelengths of 485 and 535 nm, respectively.

[2] = system: Tie2 receptor; assay: Tie2 phosphorylation in HUVECs (immunoprecipitation/Western); format: cell-based, human; settings: antibody 0.02-50 μg/ml with hAng2 1 μg/ml, 30 min
Method: Ang2 binds to the Tie2 receptor and acts as a weak agonist or antagonist. The anti-Ang2 antibody developed in this invention binds to Ang2 to induce Ang2-antibody complexes, further causing clustering of Tie2 receptors and consequently enhancing activation of Tie2 receptor. Experiments were conducted to analyze the effect of anti-Ang2 antibody on Tie2 phosphorylation using HUVECs.
Specifically, HUVECs (LONZA™) were cultured in EGM-2 (LONZA™) at 37° C. and 5% CO2 concentration in a 100 mm culture dish. At 80-90% confluency, the cells were changed to EBM-2 (LONZA™) medium for 2 hrs˜ 6 hrs for serum starvation. Humanized anti-Ang2 antibodies at various concentrations (0.02 μg/ml to 50 μg/ml) were mixed with hAng2 protein (1 μg/ml, R&D® Systems) for 30 min. Then, the mixtures were treated with the cultured cells and further incubated for 30 min. The cells were washed twice with cold PBS and then lysed in 1000 μl of lysis buffer (10 mM Tris-Cl pH 7.4, 150 mM NaCl, 5 mM EDTA, 10% glycerol, 1% TRITON™ X-100 (non-ionic polyoxyethylene surfactant), protease inhibitor, phosphatase inhibitor) and then lysed at 4° C. for 60 min. Cell extracts were prepared and centrifuged at 12,000 rpm for 10 min. The supernatant was quantitated by bicinchoninic (BCA) assay.
To 0.5 mg of cell lysate, 1 μg of Tie2 antibody (R&D® Systems, AF313) was added and incubated overnight at 4° C. […]

[3] = system: LLC (Lewis Lung Carcinoma) tumor; assay: Tumor growth inhibition in LLC subcutaneous model; format: in vivo, C57BL/6 mice; settings: LLC s.c.; antibody 10 mg/kg i.p. every 2-3 days; Cpt 3 mg/kg i.p. once
Method: 2C8H11 anti-Ang2 antibody was tested for its ability to inhibit tumor growth in LLC (Lewis Lung Carcinoma) cell line tumor model. Specifically, LLC cell line (ATCC) was cultured in DMEM (GIBCO™) supplemented with 10% FBS (GIBCO™). LLC cells (1×10^6 in 100 μl of PBS) were subcutaneously injected into 6˜8-week-old C57BL/6 mice (Jackson Laboratory) which were anesthetized with a mixture of Ketamine and Xylazine. When the volume of the tumors reached 50˜100 mm^3, the mice were intraperitoneally administered with 10 mg/kg of 2C8H11 antibody every 2˜3 days. Cisplatin (Cpt) was injected intraperitoneally once at a dose of 3 mg/kg in both monotherapy and combination therapy groups. The changes in tumor volume was tracked over the following days. Tumor volume (V) was measured using the formula: V=(width^2×length)/2 V=(width^2×length)/2
The experiment was performed in 4 groups: Fc (control group), Fc+Cpt group, 2C8H11 group, and 2C8H11+Cpt group. […] Meanwhile, combined treatment with 2C8H11 and Cpt delayed tumor growth by 47% compared with Fc.

B1: 2C8H11: humanized anti-Ang2 human IgG1 antibody from mouse 2C8; VH SEQ ID NO: 55, VL SEQ ID NO: 56 (antibody, V domains shown)
VH: QVQLVQSGAEVKKPGASVKVSCKASGYTFTSYWMHWVRQAPGQGLEWMGMIDPSDSETRLNQKFKDRVTMTRDTSTSTVYMELSSLRSEDTAVYYCARRFYYGSDWYFDVWGQGTLVTVSS
VL: DIQLTQSPSFLSASVGDRVTITCKASQDVGTAVAWYQQKPGKAPKLLIYWASTRHTGVPSRFSGSGSGTEFTLTISSLQPEDFATYYCQQYSSYPLTFGQGTKVEIK
modifications: human IgG1 constant regions; VH; VL
- vascular leakage induced by TNF-α (passage of FITC-dextran) [1]: significantly inhibited
- phosphorylation of Tie2 [2]: strongly induced in a dose-dependent manner
- tumor growth inhibition compared with Fc [3]: 29%

— patent US12331106B2, “Anti-angiopoietin-2 antibodies that induce Tie2 activation” (Institute for Basic Science, priority 2018, dated 2025)
